Our source for the Kd values is publication PMC10904049.

The target of assay [1] is Cerulean-tagged CaVβ2B subunit (Cerulean-WT β2B). Briefly: flow cytometric FRET assay. Conditions: HEK293 cells, read off a plot. Background: In flow cytometry, cells or beads pass a laser one at a time.
Assay [2] has as its target CaVβ4 (UniProt D4A055). Briefly: ITC. Conditions: cited from earlier work.
The mark [3] stands for this setting: FSK (10 µM) + Cal (100 nM), parent: est. 100.
Setting [4] is: no FSK, no Cal, parent: est. 7.8.

As for “Venus-tagged WT Rad (from UniProt O88667) S272A; S300A”, the Kd (as a rule, the constant that tells how readily two partners part at equilibrium) in assay [1] (setting [3]) was 17 ×10^3; in assay [1] (setting [4]), 6.3 ×10^3.

On to “Venus-tagged WT Rad (from UniProt O88667) S25A; S38A; S272A; S300A”, for which the dissociation constant (Kd) was 14 ×10^3 in assay [1] (Cal (100 nM), no FSK); 13 ×10^3 in assay [1] (setting [3]); 11 ×10^3 in assay [1] (FSK (10 µM), no Cal); 11 ×10^3 in assay [1] (setting [4]).

As for Rem2 (from UniProt Q9WTY2), the Kd in assay [2] is 156 µM.

Regarding “Venus-tagged WT Rad (from UniProt O88667) S25D; S38D”, in assay [1] (no FSK/Cal, parent: est. 7.8), the Kd was 9.2 ×10^3.

For the substance “Venus-Rad-CAAX (WT Rad with a C-terminal CAAX motif) (from UniProt O88667) S272D; S289D; S298D; S300D”, the Kd in assay [1] (no FSK/Cal, parent: est. 9.3) was 11 ×10^3.

Turning to “Venus-tagged WT Rad (from UniProt O88667) S256D; S272D; S289D; S298D; S300D; S305D”, the dissociation constant (Kd) in assay [1] (no FSK/Cal, parent: est. 7.8) is 83 ×10^3.

As to “Venus-Rad-CAAX (WT Rad with a C-terminal CAAX motif) (from UniProt O88667) F280A; F294A”, the dissociation constant (Kd) in assay [1] (+ FSK + Cal) was 21 ×10^3; in assay [1] (no FSK + Cal) it was 13 ×10^3.

Turning to “Venus-Rad-CAAX (WT Rad with a C-terminal CAAX motif) (from UniProt O88667) S272D; S300D”, the dissociation constant Kd in assay [1] (no FSK/Cal, parent: est. 9.3) was 12 ×10^3.

Take “Venus-tagged WT Rad (from UniProt O88667) S25A; S38A”: the Kd was 44 ×10^3 in assay [1] (setting [3]) and 7.5 ×10^3 in assay [1] (setting [4]).

For the substance “Venus-Rad-CAAX (WT Rad with a C-terminal CAAX motif) (from UniProt O88667) S256D; S272D; S289D; S298D; S300D; S305D”, the dissociation constant Kd in assay [1] (no FSK/Cal, parent: est. 9.3) was 12 ×10^3.

Take “Venus-tagged WT Rad (from UniProt O88667) F280A; F294A”: the Kd in assay [1] (+ FSK + Cal, parent: est. 100) was 190 ×10^3; in assay [1] (no FSK + Cal, parent: est. 8) it was 41 ×10^3.

For “Venus-Rad-CAAX (WT Rad with a C-terminal CAAX motif) (from UniProt O88667) R208A; L235A”, in assay [1], the Kd was 140 ×10^3.

Turning to “Venus-tagged WT Rad (from UniProt O88667) S25D; S38D; S272D; S300D”, in assay [1] (no FSK/Cal, parent: est. 7.8), the Kd is 18 ×10^3.

For the substance “Venus-tagged WT Rad (from UniProt O88667) R208A; L235A”, the Kd in assay [1] (parent: est. 8) is 140 ×10^3.

Regarding “Venus-tagged WT Rad (from UniProt O88667) S272D; S289D; S298D; S300D”, the Kd in assay [1] (no FSK/Cal, parent: est. 7.8) is 57 ×10^3.

As to “Venus-tagged WT Rad (from UniProt O88667) S25D; T26D; S38D; M39D”, the Kd in assay [1] (no FSK/Cal, parent: est. 7.8) is 5.7 ×10^3.

As for “Venus-tagged WT Rad (from UniProt O88667) S272D; S300D”, the Kd in assay [1] (no FSK/Cal, parent: est. 7.8) was 18 ×10^3.
